# Test results as given in paper PMC5419741, “La-related protein 1 (LARP1) binds the mRNA cap, blocking eIF4F assembly on TOP mRNAs”.
# Key:
# LARP1 DM15 [1] = target: T1, LARP1 DM15 (Homo sapiens, UniProt Q6PKG0-3 796-946); assay: EMSA; Competition assays: 20 mM Tris pH 8, 150 mM NaCl, 10% glycerol, 1 mM DTT, 0.5 ug BSA, 0.5 ug tRNA, 30 min on ice, native gel; EMSA as in Lahr et al. 2015 with RNA <=200 pM; details: protein: recombinant
# eIF4E = eIF4E (Homo sapiens, UniProt P06730 1-217); assay: competition; outcompetes DM15 as pre-bound or competitor protein; Competition assays: 20 mM Tris pH 8, 150 mM NaCl, 10% glycerol, 1 mM DTT, 0.5 ug BSA, 0.5 ug tRNA, 30 min on ice, native gel; EMSA as in Lahr et al. 2015 with RNA <=200 pM; details: protein: recombinant; tags: His6-MBP removed by TEV; label: 32P in cap
# LARP1 DM15 [2] = target: T1, LARP1 DM15; assay: crystal structure; Competition assays: 20 mM Tris pH 8, 150 mM NaCl, 10% glycerol, 1 mM DTT, 0.5 ug BSA, 0.5 ug tRNA, 30 min on ice, native gel; EMSA as in Lahr et al. 2015 with RNA <=200 pM; details: protein: recombinant
# Sequence of eIF4E (P06730 whole entry): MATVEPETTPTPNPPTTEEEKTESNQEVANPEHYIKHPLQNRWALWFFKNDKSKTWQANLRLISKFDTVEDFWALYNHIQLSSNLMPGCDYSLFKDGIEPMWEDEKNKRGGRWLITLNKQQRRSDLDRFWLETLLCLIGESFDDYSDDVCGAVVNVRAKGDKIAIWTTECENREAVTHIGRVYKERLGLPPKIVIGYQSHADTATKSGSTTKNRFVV
binder,measurement,setting,value
GCCUCUUUUCCGUGGCGCCUCGGAGGCGUUCAGCUGCUUCAAG (ssRNA) [G-RPS6 (uncapped non-TOP)],Kd,LARP1 DM15 [1]; label: 5' 32P,7500 nM
"GCCUCUUUUCCGUGGCGCCUCGGAGGCGUUCAGCUGCUUCAAG (ssRNA, 5' m7Gppp cap) [m7Gppp-G-RPS6 (capped non-TOP)]",binding result,eIF4E,binds
same,Kd,LARP1 DM15 [1]; label: 32P in cap,2000 nM
"CCUCUUUUCCGUGGCGCCUCGGAGGCGUUCAGCUGCUUCAAG (ssRNA, 5' m7Gppp cap) [m7Gppp-RPS6 42mer (capped TOP)]",Kd,LARP1 DM15 [1]; label: 32P in cap,21 nM
"CUCUCUUCCUCGGCGCUGCCUACGGAGGUGGCAGCCAUCUCC (ssRNA, 5' m7Gppp cap) [m7Gppp-RPL32 42mer]",binding result,LARP1 DM15 [1]; label: 32P in cap,binds
CUUUUCCG (ssRNA) [RPS6 8mer],binding result,LARP1 DM15 [2],binds
